Reference: publication PMC9164447
pKd: −log10 of the molar value.

Target: SARS-CoV-2 nucleocapsid N protein wild type (SARS-CoV-2) (UniProt P0DTC9)
Experiment: fluorescence anisotropy

**Q.** With NNNNNNNNNN [10-nt degenerate RNA] as the sequence, how does the pKd read?
**A.** 7.55
